± gives the standard deviation of the averaged measurements.
system: ATP; assay: switch fluorescence ratio, 500 uM ATP over buffer (Cy3 cluster intensity, sum of 5 cycles each) (fold (ratio)); higher = stronger signal-on switching upon ATP binding; sequences stand for … in TCGTCGGCAGCGTCAGATGTGTATAAGAGACAGTTTTTTTTTTTTTTTTTTTTTTTTT…TC; conditions: aptamer strand: ATP DNA aptamer (quencher-CACCTGGGGGAGTATTGCGGAGGAAGG + anchor), 100 nM annealed; ATP concentration: 500 uM
In short: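 Switching-strand clusters labelled with Cy3 on a modified Illumina MiSeq flow-cell were annealed to 100 nM quencher-labelled ATP aptamer, imaged in selection buffer, and re-imaged after 15 min with 500 uM ATP at 22 °C. This was done over five cycles with NaOH stripping and re-annealing in between. The fluorescence ratio is summed target-cycle over summed buffer-cycle Cy3 intensity per cluster, averaged per switch-domain sequence, excluding clusters outside 100-1000 RFU.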
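Further: ATP exposure 15 min at 22 °C before imaging.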

Sequence | switch fluorescence ratio
AAAAAAACCT | 1.28 ± 0.39
CAACCGGGAA | 1.1 ± 0.021
CAGAATGTGG | 0.996 ± 0.068
CCGTGGTAGG | 1.01 ± 0.018
GGGAATGGGA | 0.997 ± 0.027
TAGGAGATGA | 1 ± 0.042
GGCGGGGGCA | 0.995 ± 0.024
TTGCAAATCG | 1.11 ± 0.18
GGGATTTTCT | 1.011 ± 0.0091
TCTCGCTTGG | 1.02 ± 0.037
CGCCCCAGTG | 3.02 ± 1.8
GGGTACGTGT | 0.989 ± 0.029
ACGAGGCGTA | 1.04 ± 0.0046
GGGCAAGGGC | 1.038 ± 0.01
TAGTCAGGGG | 0.9852 ± 0.0041
TGGATGTGAT | 1.03 ± 0.049
GGGGAATTGA | 0.9919 ± 0.0013
GACACTATTG | 0.999 ± 0.016
GCTTGAGTTA | 0.9852 ± 0.0077
TGCTCTGCGT | 1.17 ± 0.012
AAGGGATTGA | 1.01 ± 0.011
TATGGGATGT | 0.988 ± 0.016
GGGATTCTTA | 0.996 ± 0.021
AGGAGTTGGG | 0.97 ± 0.046
CCTTTTGGGC | 0.97636 ± 3.3e-05

Sequence | switch fluorescence ratio
CGGCTTATTC | 1.04 ± 0.015
AGCGGCAACG | 1.08 ± 0.098
ATGATTGGTT | 1 ± 0.022
GCAAAACGGG | 1.02 ± 0.069
AAGTTTGTTG | 0.986 ± 0.023
TTATTAAATG | 0.998 ± 0.013
GACCTTAATG | 1.05 ± 0.013
CCTACCCTCC | 3.05 ± 0.22
GAGTTGTGAT | 1 ± 0.019
TGTCGTTTTC | 0.98 ± 0.03
TAATCATTGG | 1.01 ± 0.065
CAGGTGGAGA | 1.0094 ± 0.00078
GAGTATGAAG | 1.01 ± 0.031
GTATTAGGTG | 1.03 ± 0.048
TCTCCGTGGG | 1.52 ± 0.37
TTGGTTCTCT | 1.01 ± 0.011
GCCAATGTGG | 1 ± 0.051
TTACCTCATT | 1.02 ± 0.015
GGCTTCCCGG | 1.16 ± 0.002
TCTGCTACAA | 1.02 ± 0.038
GGGGAGGACA | 1.04 ± 0.082
TTCAATATGC | 1.1 ± 0.033
GACGGTTATC | 1.11 ± 0.059
AGCGGGTCGG | 1 ± 0.021
GTTGGTTTTC | 0.99 ± 0.036

Sequence | switch fluorescence ratio
AAGGCGTAC | 1.24 ± 0.17
TTCGGGGAAC | 1.06 ± 0.11
CTCGCAGGGG | 1.37 ± 0.2
TATAGGGAGG | 0.988 ± 0.027
TACGAGCTGG | 0.995 ± 0.01
GGGGTGTACA | 0.969 ± 0.027
GAAAAGGGT | 1.08 ± 0.065
GCCATTCATC | 1.02 ± 0.017
GTTTTGCATA | 1.01 ± 0.028
TTTTCATTCG | 1 ± 0.033
GTCAGCGGTG | 0.9993 ± 0.009
AGGTGGGGAG | 0.998 ± 0.041
GGGGGCTAAA | 1.02 ± 0.017
ATGCATTTTA | 0.999 ± 0.045
TTGGAAGTTC | 1 ± 0.019
TAAGTTCGCA | 1.05 ± 0.024
TAGGGTTTTT | 1.03 ± 0.038
CAAGGTGTGT | 1.01 ± 0.043
GTTGGGAGGG | 0.985 ± 0.012
GGGTTAGCCT | 0.999 ± 0.011
GCTTGGATGT | 1.0207 ± 0.00092
ATCGGGAATG | 1.019 ± 0.0018
TTTTTGGATT | 1 ± 0.032
CGTGAGATGC | 1.01 ± 0.038
GGTCTTGCGA | 0.9755 ± 0.0078

Sequence | switch fluorescence ratio
TTTTTGTTGC | 1.02 ± 0.02
CTGGAATGTG | 1.003 ± 0.01
GTTTAAGGCT | 1.02 ± 0.088
CTCGTGTTGG | 0.989 ± 0.018
AACGCACGTT | 1.28 ± 0.02
TTCATCAGCG | 1.05 ± 0.083
CAGTGGGAGA | 1.025 ± 0.0088
GGGACGGAAA | 1.11 ± 0.16
TGGATTTTGG | 0.98 ± 0.021
TAAACGGTCA | 1.07 ± 0.022
GTGTGGGCTG | 1.0001 ± 0.0002
AGGAGTGCTG | 0.995 ± 0.052
AAGGATAATG | 0.976 ± 0.019
GATTTTGACG | 1.04 ± 0.067
AATCGCTCTG | 1.01 ± 0.027
TAAATATTGT | 1.01 ± 0.016
ATATCAGTTC | 1.012 ± 0.0091
AGAGTCATTA | 0.995 ± 0.012
TATACTACGG | 1.09 ± 0.024
AGGAATATTT | 1.04 ± 0.095
TGCGCAACTT | 1.0306 ± 0.001
ACTCTAGTTT | 1.048 ± 0.0027
AACGGTTTCC | 1.02 ± 0.038
AGATAGGAG | 0.989 ± 0.027
CAGAACTCTT | 0.963 ± 0.034

Source: the supplement of paper PMC10126150
